Consider 3 substances from patent US20230322950A1.

Assay [1] addresses VL1VH3-CD8ATD-CD137CSD-CD3zSSD fusion.
Assay [2] deals with VH2VL1-CD8ATD-CD137CSD-CD3zSSD fusion.
The target of assay [3] is VL1VH3-CD8ATD-CD137CSD-CD3zSSD fusion. The source holds these as a separate data set.
The target in assay [4] is VH3VL1-CD8ATD-CD137CSD-CD3zSSD fusion.
The target in assay [5] is VH1VL1-CD8ATD-CD137CSD-CD3zSSD fusion.
Assay [6] has as its target VH2VL1-CD8ATD-CD137CSD-CD3zSSD fusion. The source holds these as a separate data set.
Assay [7] concerns the target VL1VH3-CD8ATD-CD137CSD-CD3zSSD fusion. This is another data set of the same source.
Assay [8] concerns the target VH3VL1-CD8ATD-CD137CSD-CD3zSSD fusion. This is another data set of the same source.
Assay [9] has as its target VH1VL1-CD8ATD-CD137CSD-CD3zSSD fusion. This is another data set of the same source.
The target in assay [10] is VH2VL1-CD8ATD-CD137CSD-CD3zSSD fusion. The source holds these as a separate data set.

Chain of VL1VH3-CD8ATD-CD137CSD-CD3zSSD fusion (chain, as listed by the source): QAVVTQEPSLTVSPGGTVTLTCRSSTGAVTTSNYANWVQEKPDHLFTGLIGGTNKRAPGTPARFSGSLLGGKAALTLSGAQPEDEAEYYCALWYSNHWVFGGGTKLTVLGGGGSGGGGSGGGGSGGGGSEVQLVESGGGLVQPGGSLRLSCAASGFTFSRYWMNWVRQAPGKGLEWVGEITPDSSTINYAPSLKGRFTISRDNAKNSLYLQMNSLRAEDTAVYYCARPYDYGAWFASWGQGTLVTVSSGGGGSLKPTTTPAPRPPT
Chain of VH2VL1-CD8ATD-CD137CSD-CD3zSSD fusion (chain, as listed by the source): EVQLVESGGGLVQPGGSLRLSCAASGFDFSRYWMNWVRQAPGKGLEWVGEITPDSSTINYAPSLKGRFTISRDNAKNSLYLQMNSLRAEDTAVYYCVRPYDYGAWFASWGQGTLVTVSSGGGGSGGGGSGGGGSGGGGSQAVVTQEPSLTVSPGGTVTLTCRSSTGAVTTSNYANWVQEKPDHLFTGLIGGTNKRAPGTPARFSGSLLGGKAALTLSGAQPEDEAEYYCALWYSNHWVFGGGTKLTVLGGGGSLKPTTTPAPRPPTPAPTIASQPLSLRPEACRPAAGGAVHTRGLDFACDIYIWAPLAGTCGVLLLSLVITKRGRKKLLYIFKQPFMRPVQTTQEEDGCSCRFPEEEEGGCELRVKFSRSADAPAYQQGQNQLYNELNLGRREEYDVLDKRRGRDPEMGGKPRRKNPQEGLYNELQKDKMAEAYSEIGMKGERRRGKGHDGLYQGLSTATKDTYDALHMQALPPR
Chain of VH1VL1-CD8ATD-CD137CSD-CD3zSSD fusion (chain, as listed by the source): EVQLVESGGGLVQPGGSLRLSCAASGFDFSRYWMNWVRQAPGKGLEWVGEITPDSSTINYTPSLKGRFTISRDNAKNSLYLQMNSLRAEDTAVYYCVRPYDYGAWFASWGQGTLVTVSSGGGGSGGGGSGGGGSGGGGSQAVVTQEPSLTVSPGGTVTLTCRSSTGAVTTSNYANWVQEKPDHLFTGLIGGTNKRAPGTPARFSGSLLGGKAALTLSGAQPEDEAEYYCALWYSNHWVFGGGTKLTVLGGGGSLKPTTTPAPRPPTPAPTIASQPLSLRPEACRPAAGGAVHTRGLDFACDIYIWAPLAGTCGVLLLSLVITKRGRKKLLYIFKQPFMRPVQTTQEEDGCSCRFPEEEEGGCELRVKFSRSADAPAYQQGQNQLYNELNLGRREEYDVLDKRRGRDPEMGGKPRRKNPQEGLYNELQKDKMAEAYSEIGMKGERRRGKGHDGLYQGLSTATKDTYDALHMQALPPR
Chain of VH3VL1-CD8ATD-CD137CSD-CD3zSSD fusion (chain, as listed by the source): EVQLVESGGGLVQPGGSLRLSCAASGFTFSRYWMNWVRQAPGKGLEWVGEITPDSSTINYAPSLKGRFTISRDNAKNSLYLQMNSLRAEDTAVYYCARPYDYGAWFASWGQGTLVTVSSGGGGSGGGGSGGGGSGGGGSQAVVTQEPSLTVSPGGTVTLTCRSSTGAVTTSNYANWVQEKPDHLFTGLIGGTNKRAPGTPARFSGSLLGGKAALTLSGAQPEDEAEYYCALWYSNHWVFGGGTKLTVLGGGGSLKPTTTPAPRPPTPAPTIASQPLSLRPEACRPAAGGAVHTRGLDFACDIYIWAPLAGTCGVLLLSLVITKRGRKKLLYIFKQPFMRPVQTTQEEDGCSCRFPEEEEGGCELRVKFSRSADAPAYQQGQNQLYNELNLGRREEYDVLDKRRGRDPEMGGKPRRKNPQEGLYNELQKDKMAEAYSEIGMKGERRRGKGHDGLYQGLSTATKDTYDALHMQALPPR

On to DP47 P329G LALA (antibody), for which the EC50 printed in the drawn table (row 'VL1 x VH 3') for the Jurkat NFAT reporter assay with WSUDLCL2 cells and untargeted DP47 P329G LALA; the curve stays near background (about 60 to 110 RLU/s) in [1] is 7.42 nM. For the same substance, the EC50 printed in the drawn table (row 'VH2 x VL1') for the Jurkat NFAT reporter assay with WSUDLCL2 cells and untargeted DP47 P329G LALA; the curve stays at background (about 60 to 90 RLU/s) in assay [2] is 0.293 nM.

In the case of “anti-CD20 (GA101) D246A P329G IgG1 (antibody)”, the EC50 of Jurkat NFAT luciferase reporter activation (RLU/s), WSUDLCL2 target cells 5:1; drawn table, row 'VL1 x VH 3'; x axis 'GA101 D246A P329G [nM]' in assay [3] came to 0.00619 nM. Further, in assay [4], the EC50 of Jurkat NFAT luciferase reporter activation (RLU/s), WSUDLCL2 target cells 5:1; drawn table, row 'VH3 x VL1'; x axis 'GA101 D246A P329G [nM]' worked out at 0.00582 nM. For the same substance, in [5], the EC50 of Jurkat NFAT luciferase reporter activation (RLU/s), WSUDLCL2 target cells 5:1; drawn table, row 'VH1 x VL1'; x axis 'GA101 D246A P329G [nM]' came out at 0.00814 nM. The EC50 of Jurkat NFAT luciferase reporter activation (RLU/s), WSUDLCL2 target cells 5:1; drawn table, row 'VH2 x VL1'; x axis 'GA101 D246A P329G [nM]' in assay [6] worked out at 0.0104 nM.

Take “anti-CD20 (GA101) P329G LALA IgG1 (antibody)”: the EC50 of Jurkat NFAT luciferase reporter activation (RLU/s), WSUDLCL2 target cells 5:1; drawn table, row 'VL1 x VH 3' in assay [7] was 6.58 pM. In assay [8], this substance came in with an EC50 of Jurkat NFAT luciferase reporter activation (RLU/s), WSUDLCL2 target cells 5:1; drawn table, row 'VH3 x VL1' of 7.57 pM. The EC50 of Jurkat NFAT luciferase reporter activation (RLU/s), WSUDLCL2 target cells 5:1; drawn table, row 'VH1 x VL1' in assay [9] was determined as 8.1 pM. This substance had an EC50 of Jurkat NFAT luciferase reporter activation (RLU/s), WSUDLCL2 target cells 5:1; drawn table, row 'VH2 x VL1' in assay [10] of 6.93 pM.
